{"source": "paper PMC8035321", "target": "mouse MOCCI^FLAG (Modulator of cytochrome C oxidase during Inflammation, FLAG-tagged) (mouse)", "assay": "co-IP; anti-FLAG M2 beads on total mouse heart mitochondria (AAV-MOCCI; AAV-GFP as negative control) solubilised with 1% digitonin in IP buffer (50 mM HEPES-KOH, 150 mM NaCl, 1 mM EDTA, pH 7.4), 4 °C; elution with 3X FLAG peptide; immunoblotting"}
{"substance": "MTCO-1, the catalytic subunit of CIV (cytochrome C oxidase) (from UniProt P00397 1-514) (natural protein)", "values": [{"measurement": "enrichment in the anti-FLAG immunoprecipitate", "value": 231, "unit": "%"}]}
